Reference: publication PMC10341521, “Rapid Generation and Molecular Docking Analysis of Single-Chain Fragment Variable (scFv) Antibody Selected by Ribosome Display Targeting Cholecystokinin B Receptor (CCK-BR) for Reduction of Chronic Neuropathic Pain” (International Journal of Molecular Sciences, 2023)
Read-outs that look alike come from different tables or passages of the source.

T1: mouse CCK-B receptor peptide (custom 15-amino-acid extracellular mouse sequence) (Mus musculus, UniProt P56481)
T1 construct: 15-amino-acid extracellular stretch of the mouse cholecystokinin B receptor (CCK-BR, CCK2); The docking section names the peptide residues Glu40, Arg45, Arg50 and Glu53, which may be receptor numbering; also called CCK-B peptide; CCK-BR peptide; source: custom 15-amino-acid peptide
T1 chain: CETPRIRGTGTRELE

T2: mouse CCK-B receptor peptide (custom 15-amino-acid extracellular mouse sequence) (mouse)
T2 chain: CETPRIRGTGTRELE


Key:
[1] = target: T1, mouse CCK-B receptor peptide (custom …); test: ELISA; indirect ELISA of the scFvs on CCK-B receptor peptide, concentration-dependent; apparent affinity; methods in the supplementary section; conditions: both partners purified
[2] = target: T1, mouse CCK-B receptor peptide (custom …)
[3] = target: T1, mouse CCK-B receptor peptide (custom …); test: BLI; Octet RED384 instrument; scFv77-2 and mouse CCK-B peptide; conditions: both partners purified
[4] = target: T1, mouse CCK-B receptor peptide (custom …); test: not stated
[5] = target: T2, mouse CCK-B receptor peptide (custom …); test: BLI

Binder	binding result [2]	further results
CCK-B scFv134-1 antibody (scFv, V domains shown, VH of scFv134-1; 20-amino-acid flexible linker, printed as the formula [(G4S)4] and written out from it; VL of scFv134-1; One of the panel of 7 anti-CCK-B receptor scFvs; Construct and methods are in the supplementary section; source: E. coli cytoplasm (pET32a expression vector), purified) VH: EVQLQQSGAELVKPGASVKMSCKASGYTFTDYWMHWVKQRPGQGLEWIGAIDTSDSYTSYNQKFKGKATLTVDKSSSTAYIQLSSLTSEDSAVYYCARSEGYLPFDYWGQGTTLTVSS VL: DVVMTQTPLSLPVSFGDQVSISCRSSQSLANSYGNTYLSWYLHKPGQSPQLLIYGISNRFSGVPDRFSGSGSGTDFTLKISTIKPEDLGMYYCLQGTHQPRTFGGGTKLEIK	–	binding result [1]: binds
CCK-BR_scFv11-2 (antibody, V domains shown) VH: QVQLKQSGAELVRPGSSVKISCKASGYAFTNYLIEWVKQRPGQGLEWIGQIYPGDGDTNYNGKFKGKATLTVDNSSSTAYMELRSLTSEDSAVYYCARAATWYYAMDYWGQGTSVTVSS VL: QIVLTQSPAIMSASPGEKVTITCSASSSVSYMHWFQQKPGTSPKLWIYSTSNLASGVPARFSGSGSGTSYSLTISSMEAEDAASYFCHQWSSYPWTFGGGTKLEIK	binds	–
CCK-B scFv77-2 antibody (scFv, V domains shown, VH of scFv77-2; 20-amino-acid flexible linker, printed as the formula [(G4S)4] and written out from it; VL of scFv77-2; Selected by ribosome display from a library of immunised mice; Apparent mass 26 kDa on the gel; The His-tag is named only for the Western blots of tissue after injection; Construct and methods are in the supplementary section; also called CCK-BR scFv 77-2; CCKBR scFv 77-2; …) VH: EVQLQQSGAELVRSGASVKLSCTASGFNIKDYYIHWVKQRPEQGLEWIGWIDPENGDTEYAPKFQGKATMTADTSSNTAYLQLSSLTSEDTAVYYCNAGGRFAYWGQGTLVTVSA VL: DIVMTQSPSSLSVSAGEKVTMSCKSSQSLLNSGNQKNYLAWYQQKPGQPPKLLIYGASTRESGVPDRFTGSGSGTDFTLTISSVQAEDLAVYYCQNDHSYPYTFGGGTKLEIK	–	Kd [3]: 17.9 nM; Kd [4]: 195 nM; koff [5]: 0.000381 s⁻¹
CCK-BR_scFv93-1 (antibody, V domains shown) VH: QVQLKESGPGLVAPSQSLSITCTVSGFSLTSYGVHWVRQPPGKGLEWLGVIWAGGSTNYNSALMSRLSISKDNSKSQVFLKMNSLQTDDTAMYYCARGLRGAMDYWGQGTSVTVSS VL: DIVMTQSPSSLSVSAGEKVTMSCKSSQSLLASGNQNNYLAWHQQKPGRSPKMLIIWASTRESGVPDRFTGSGSGTDFTLTISSVQAEDVAVYYCQNDHSYPFTFGSGTKLEIK	binds	–

The next lines start with results.

binding result [2]	Binder	further results
binds	CCK-BR_scFv13-3 (antibody, V domains shown) VH: EVQLQQSGAELVKPGASVKMSCKASGYTFTSYWMHWVKQRPGQGLEWIGYINPSTGYTEYNQKFKDKATLTADKSSSTAYMQLSSLTSEDSAVYYCAGDNYGYWYFDVWGAGTTVTVSS VL: DIVMTQSPSSLSVSAGEKVTMSCKSSQSLLNSGNQKNYLAWYQQKPGQPPKLLIYGASTRESGVPDRFTGSGSGTDFTLTISSVQAEDLAVYYCQNDHSYPYTFGGGTKLEIK	–
binds	CCK-BR_scFv8-3 (antibody, V domains shown) VH: QVQLKESGAELAKPGASVKMSCKASGYTFTSYWMHWVKQRPGQGLEWIGYINPSTGYTEYNQKFKDKATLTADKSSSTAYMQLSSLTSEDSAVYYCARDYGSSFDYWGQGTTLTVSS VL: DVVMTQTPLTLSVTIGQPASISCKSSQSLLDSGNQKNYLAWYQQKPGQPPKLLIYGASTRESGVPDRFTGSGSGTDFTLTISSVQAEDLAVYYCQNDHSYPYTFGGGTKLEIK	–
